Data from the nanobody polyreactivity screen of Harvey et al. (2022).

Assay: yeast display, Sf9 membrane polyspecificity reagent, FACS + sequencing; frameworks hold sequencing errors
How it was run: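 Synthetic nanobody libraries on Saccharomyces cerevisiae BJ5465 were galactose-induced for 36–48 hours, stained 1 hour at 4 °C with 10% biotinylated, detergent-solubilized Sf9 membrane reagent and enriched on streptavidin microbeads. FACS then separated cells into low and high (top ~1%) gates by anti-HA (expression) and streptavidin (reagent binding) fluorescence. Genes were colony-PCR amplified, MiSeq 2 × 250 sequenced and CDR-length filtered. A clone's polyreactivity label is that of its gate of origin.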
With “QVQLVDSGGGLVQAGGSLLLSCAASGSISYQNAMGWYRQAPGKERELVAANSGDGDSTYYADSVKGRFTISRDNAKNTVYLQMNRLKPEDTAVYYCAAEPNVYFSVFVLFTSDYWGQGTLVTVSS” the “polyreactivity (PSR sort gate)” value was “low polyreactivity”. For “QVQLVDSGGGLVQAGGSLLLSCSASGSIFFSYAMGLYRQAPGKEREFVAAINSDDASTYADSVKGRFTISRDNAKNTVYLQMNSLKPEDTAVYYCAASFLWSWYDYWGQGTQVTVSS”, the “polyreactivity (PSR sort gate)” value was “low polyreactivity”. In the case of “QVQLVDSGGGLVQAGGSLPLSCAASGSIFDDYAMGWNRKAPGKERELVAAISGGVSTNYADSVKGRFTISRDNAKKTDYLQINSLKPEDTAVYYCNADYARAYIHEYWGQGTQVTVSS”, the “polyreactivity (PSR sort gate)” value is reported as “low polyreactivity”. In the case of “QVQLVDSGGGLVQAGGSLRISCAASGSIFPPYAMGWSRQAPGKERELVAAITYSGVRTYYADSVKGRFTISRDNAKNTVYLQMNSLKPEDTAVYYCAAVYRRGIGYPFGYWGQGTQVSVSS”, the “polyreactivity (PSR sort gate)” value is reported as “high polyreactivity”. In the case of “QVQLVDSGGGLVQAGGSLRLICAASGRIFIYNAMGWYRQAPGKERELVAAITRGGNTNYADSVKGRFTISRDNAKNTVYLQMNSLKPEDTAVYYCAAAIRYGSRHRGYWGQGTQVTVSS”, the “polyreactivity (PSR sort gate)” value is reported as “low polyreactivity”. With “QVQLVDSGGGLVQAGGSLRLICAASGSTLGQYAMGWYRQAPGKERELVAAITARTGRTYYADSVKGRFTISRDNAKNTVYLQMNSMKPEDTAVYYCASVTFSYQDYYWGQGTQVTVSS” the “polyreactivity (PSR sort gate)” value was “high polyreactivity”. For “QVQLVDSGGGLVQAGGSLRLICPASGSIFSTYAMGWYRQAPGKERELLAAINRGTSTNYADSVKGRFTISRDNAKNTVYLQMNCLKPEDTAVYYCAAYYRGRYGPRRSEYWGQGTQVTVSS”, the “polyreactivity (PSR sort gate)” value was “high polyreactivity”. With “QVQLVDSGGGLVQAGGSLRLSCAASAFIFTRYAMGWYRQAPGKERELVAAISWIGTSTYYADSVKGRFTISRDNAKNTVYLQMNSLKPEDTAVYYCAKRSTSQSLQGVYWGLGTQVTVSS” the “polyreactivity (PSR sort gate)” value was “high polyreactivity”. With “QVQLVDSGGGLVQAGGSLRLSCAASGFIFKYYAMGWYRQEPGKERELVAAITIGGSTNYADSVKGRFTISRDNAKNTVYLQMNSLTPEDTAVYSCAADVQERYHRAWYDYWGQGTQVTVSS” the “polyreactivity (PSR sort gate)” value was “low polyreactivity”. For “QVQLVDSGGGLVQAGGSLRLSCAASGFIFQANAMGWYRQAPGKERELVAAIDDGDSTYADSVKGRFTISRDNAKNTVYLQMNSLKPEDTAVYYCATRRNRSYDYWGQGTLVTVSS”, the “polyreactivity (PSR sort gate)” value was “low polyreactivity”. With “QVQLVDSGGGLVQAGGSLRLSCAASGFIFSSYAMVWYRQAPGKERELVAAISRSGGYTYYADSVKGRFTISRDNAKNTVYFQMNSLNAEDTAVYYCATRSYMPGVRRGYDYWGKGTQVTVSS” the “polyreactivity (PSR sort gate)” value was “high polyreactivity”. In the case of “QVQLVDSGGGLVQAGGSLRLSCAASGFILSRYTMGWYRQAPGKERELVATISSGGRTYYADSVKGRFTISRDNAKNTVYLQMNSLKPEDTAVYYCAAAYTYWRISGNRYLYDYWGQGTQVTVSS”, the “polyreactivity (PSR sort gate)” value is reported as “high polyreactivity”. For “QVQLVDSGGGLVQAGGSLRLSCAASGFNFVFNAMGWYRQAPGKERELVAAINGGDITNYADSVKGRFTISRDNAKNTVYLQMNSLKPEDTAVYYCAADGEYSLWTGYDYDYWGQGTQVTVSS”, the “polyreactivity (PSR sort gate)” value was “low polyreactivity”. In the case of “QVQLVDSGGGLVQAGGSLRLSCAASGFTFSAYAMGWYRQAPGKERELVAAISWSGSRTYYADSVKGRFTISRDNAKNTVYLQMNSLKPEDTAVYYCAKEPYDTFGFYEYDYWGQGTQVTVSS”, the “polyreactivity (PSR sort gate)” value is reported as “low polyreactivity”. In the case of “QVQLVDSGGGLVQAGGSLRLSCAASGFTFSTNAMGWYRQAPGKERELVAGITSSGGNTYYADSVKGRFTISRDNAKNTVYLQMNSLKPEDTAVYYCAKRRNYVAYDYWGQGTQVTVSS”, the “polyreactivity (PSR sort gate)” value is reported as “high polyreactivity”. In the case of “QVQLVDSGGGLVQAGGSLRLSCAASGFTFVYYVMGWYRQAPGKERQLVAAINAGGGSTYYADSVKGRFTISRDIAKYTVYLQMNSLKPEDTAVYYCNARVRVRLGRNWSSYYYWGQGTQVTVSS”, the “polyreactivity (PSR sort gate)” value is reported as “high polyreactivity”. In the case of “QVQLVDSGGGLVQAGGSLRLSCAASGFTFYLNTMGWYRQAPGKERELVAAIDLSDGTTYYADSVKGRFTISRDNAKNTVYLQMNSLKPEDTAVYYCAAESYEEWTSSGLDWTDDYWGQGTQVTVSS”, the “polyreactivity (PSR sort gate)” value is reported as “high polyreactivity”.
